Laboratory results reported in patent US20230203156A1 (published 2023).

Target: human MDR1 (multidrug resistance protein 1) (UniProt P08183 1-1280)
Assay: FACS binding, 293T cells expressing human MDR1

Row | Binder | EC50 [nM]
1 | B1.188 (antibody, V domains shown) VH: EVMLVESGGALVKPGGSLKLSCAASGFTFSNYAMSWVRQTPEKRLEWVATISSGGSYTYYPDSVKGRFTISRDNARNTLYLQMSSLRSEDTAMYYCARGYGNFAWFAYWGQGTLVTVSA VL: DIQMTQSPLSLPVSLGDQASISCRSSQSIVHSTGNTYLEWYLQKPGQSPKLLIYKVSNRFSGVPDRFSGSGSGTDFTLKISRVEAEDLGVYYCFQGSHVPFTFGSGTKLEIK | 14.1
2 | B1.27 (antibody, V domains shown) VH: EVKLVESGGGLVKPGGSLKLSCAASGFTFSSYTMSWVRQTPEKRLEWVATVSSGGGNTYYPDSVKGRFTISRDNAKNNLYLQMSSPRSEDTALYYCARYGNYGWFTYWGQGTLVTVSS VL: DVVMTQTPLSLPVSLGDQASISCRSSQNIVHSTGNTYLDWYLQKPGQSPKLLIYKVSNRFSGVPDRFSGSGSGTDFTLKISRVEAEDLGVYFCFQGSHIPRTFGGGTKLEIK | 34
3 | B1.30 (antibody, V domains shown) VH: EVMLVESGGGLVKPGGSLKLSCAASGFTFSSYTMSWVRQTPEKRLEWVATISSGGGNTYYPDSVKGRFTISRDNAKNNLYLQMSSLRSEDTALYYCARYYRYDAWFAYWGQGTLVTVSA VL: DVLMTQTPLSLPVSLGDQASISCRSSQSIVHSTGNTYLEWYLQKPGQSPKLLIYKVSNRFSGVPDRFSGSGSGTDFTLKISRVETEDLGVYYCFQGSHVPRTFGGGTKLEIK | 8.5
4 | B1.39 (antibody, V domains shown) VH: EVMLVESGGGLVKPGGSLKLSCAASGFTFSSYTMSWVRQTPEKRLEWVATVSSGGGNTYYPDSVKGRFTISRDNAKNNLYLQMSSLRSEDTALYYCARYGNYGWFTYWGQGTLVTVSA VL: DVLMTQTPLSLPVSLGDQASISCRSSQSILHSNGNTYLEWYLQKPGQSPKLLIYKVSNRFSGVPDRFSASGSGTDFTLKISRVEAEDLGIYYCFQGSHVPRTFGGGTKLEIK | 14.2
5 | B1.178 (antibody, V domains shown) VH: EAQLVESGGALVKPGGSLKLSCSASGFTFSNYAMSWVRQTPEKRLEWVATISSGGTNTYYPGSVKGRFTIARDNAKNTLYLLMSSLRSEDTALYFCARYSNLAWFASWGQGTLVTVSA VL: DVVMTQTPLSLPVSLGDQASISCRSSQSIVHSNGNTYLEWYLQKPGQSPKFLISKVSNRFSGVPDRFSGSGSGTDFTLKISRVEAEDLGIYYCFQGSHVPYTFGGGTKLEIK | 16.6

Binders with a lower EC50, results first:

Row | EC50 [nM] | Binder
6 | 8 | B1.201 (antibody, V domains shown) VH: EVQLVESGGALMKPGGSLKFSCAASGFTFTNYAMSWVRQTPEKRLEWVATISSGGSNTYYSDSVKGRFTISRDNAKTTLYLQMSGLRSEDTALYYCAKFSNFGRFASWGQGTLVTVSA VL: DVLMTQTPLSLPVSLGDQASISCRFSQSIVHSSGNTYLEWYLQKPGQSPRLLIYKVSNRFFGVPDRISGSGSGTDFTLRISRVEAEDLGVYYCFQGSHVPYTFGGGTKLEIK
7 | 4.6 | B1.223 (antibody, V domains shown) VH: EVKLVESGGALVKPGGSLKLSCAASGFTFSNYAMSWVRQTPEKRLEWVATISSGGSYTYYPDSVKGRFTISRDNAKTTLYLQMSGLRSEDTALYYCAKFSNYGRFASWGQGTLVTVSS VL: DIQMIQSPLSLPVSLGDQASISCRSSQSIVHSSGNTYLEWYLQKPGQSPRLLIYKVSNRFFGVPDRISGSGSGTDFTLRISRVEAEDLGVYYCFQGSHVPYTFGGGTKLELK
8 | 4.3 | B1.207 (antibody, V domains shown) VH: GVQLVESGGALVKPGGSLKLSCAASGFTFSNYAMSWVRQTPEKRLEWVATISSGGSYTYYPDSVKGRFTISRDNAKTTLYLQMSGLRSEDTALYYCAKYSNYGRFASWGQGTLVTVST VL: DVLMTQTPLSLPVSLGDQASISCRSSQSIVHSSGNTYLEWYLQKPGQSPRLLIYKVSNRFFGVPDRISGSGSGTDFTLRISRVEAEDLGVYYCFQGSHVPYTFGGGTKLEIK
